Consider one molecule from article PMC10978497, “The GTPase activating protein Gyp7 regulates Rab7/Ypt7 activity on late endosomes” (The Journal of Cell Biology, 2024).

For this experiment, the target named is T1, guanine nucleotide dissociation inhibitor (GDI) (yeast, UniProt P39958 1-451).
T1 construct: expressed as GST-PreSc-GDI; also called Gdi1; source: E. coli BL21 DE3 (Rosetta), purified (glutathione sepharose, cleaved from the beads with PreScission protease); not shown: GST, N-terminal, cleaved
T1 sequence (looked up): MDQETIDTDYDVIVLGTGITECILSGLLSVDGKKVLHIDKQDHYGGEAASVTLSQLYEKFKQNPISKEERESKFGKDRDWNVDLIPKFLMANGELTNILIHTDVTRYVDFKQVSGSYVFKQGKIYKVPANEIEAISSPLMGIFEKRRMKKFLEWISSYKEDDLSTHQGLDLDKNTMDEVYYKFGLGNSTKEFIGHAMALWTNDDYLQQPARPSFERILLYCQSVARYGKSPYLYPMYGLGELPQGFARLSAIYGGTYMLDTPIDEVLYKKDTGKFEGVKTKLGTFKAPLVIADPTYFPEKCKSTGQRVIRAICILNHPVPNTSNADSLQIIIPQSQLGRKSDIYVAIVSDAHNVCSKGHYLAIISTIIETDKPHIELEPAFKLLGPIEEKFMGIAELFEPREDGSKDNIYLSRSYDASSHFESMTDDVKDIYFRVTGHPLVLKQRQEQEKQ
The experiment can be described thus: SEC; after in vitro prenylation (Rab GTPase, GDI, His6-Mrs6, Bet4 His6-TEV-Bet2 at 10:9:1:1, 37°C, 1.5 h) and removal of His6-Mrs6 and Bet4 His6-TEV-Bet2 on Ni2+ resin, the supernatant was loaded on a Superdex200 increase column; prenylation buffer 50 mM HEPES-NaOH pH 7.4, 150 mM NaCl, 1.5 mM MgCl2, 1 mM DTT. As to conditions: both partners purified. A general note: SEC sorts molecules by how far they enter the pores of the column.

B1: prenylated Ypt7 (natural protein, yeast, UniProt P32939 1-208, looked up)
chain: MSSRKKNILKVIILGDSGVGKTSLMHRYVNDKYSQQYKATIGADFLTKEVTVDGDKVATMQVWDTAGQERFQSLGVAFYRGADCCVLVYDVTNASSFENIKSWRDEFLVHANVNSPETFPFVILGNKIDAEESKKIVSEKSAQELAKSLGDIPLFLTSAKNAINVDTAFEEIARSALQQNQADTEAFEDDYNDAINIRLDGENNSCSC
modifications: prenylated in vitro with geranylgeranyl pyrophosphate (C-terminal prenyl anchor; positions not stated)
notes: Ypt7, the Rab7-like GTPase of yeast; The methods list GST-TEV-Ypt7 (cleaved off the beads with TEV protease), Ypt7-His6 and, once, His6-TEV-Ypt7; I surmise that the prenylated Ypt7 came from GST-TEV-Ypt7, because it has a free C-terminus; also called Rab7-like Ypt7; Ypt7-GDP; source: E. coli BL21 DE3 (Rosetta), purified; preloaded with GDP and prenylated in vitro (Mrs6, Bet4-Bet2, geranylgeranyl …)
For the molecule B1, the binding result is reported as “binds”.
